Data reported in PMC5353646, “Allosteric modulation of peroxisomal membrane protein recognition by farnesylation of the peroxisomal import receptor PEX19” (Nature Communications, 2017).
Residues, ends and D or L forms follow the SMILES beside them. No end group written: not given here. *: point of attachment. FITC = O=C1OC2(c3ccc(O)cc3Oc3cc(O)ccc32)c2ccc(NC(=S)*)cc21; fluorescein = fluorescein label on the N-terminus

Key:
[1] = molecular target: T1, farnesylated wild type PEX19 CTD (Homo sapiens, UniProt P40855); experiment: Fluorescence polarization, ALDP peptide binding to farnesylated wild type PEX19 CTD; conditions: ratio farnesylated vs non-farnesylated wild type PEX19 CTD
T1 construct: we studied the human PEX19 CTD (residues 161–299) that includes the native C-terminus; hexahistidine (TEV-cleavable) (cleaved yes); made in house; host or cells: Escherichia coli BL21 (DE3); farnesylated in vitro with recombinant S. cerevisiae farnesyl transferase
T1 sequence (P40855 161-299): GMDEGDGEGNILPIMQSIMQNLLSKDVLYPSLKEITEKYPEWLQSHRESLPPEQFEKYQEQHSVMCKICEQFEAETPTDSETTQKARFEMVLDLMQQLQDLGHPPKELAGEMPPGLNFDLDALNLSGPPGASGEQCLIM
Procedure: (§1) ALDP peptide (62-AAKAGMNRVFLQRLL-76) fused N-terminally with fluorescein isothiocyanate (FITC), was purchased from Peptide Specialty Laboratories GmbH. The lyophilized powder was dissolved in 1 ml water resulting in a 5 mM stock solution. Overnight dialysis against buffer containing 50 mM Tris pH 8.0, 50 mM NaCl, removed trifluoroacetate counterions. For the determination of each binding curve a 12 point titration was performed with constant concentration of 20 nM labelled peptide with increasing concentrations of PEX19 CTD variants. Starting concentration of PEX19 CTD was 1 mM with 12 serial dilutions reaching 0.5 μM. Reaction mixtures were then transferred into 96-well Optiplate and measured as triplicates in PerkinElmer EnVision plate reader. […]
(§2) Supplementary Figure 6: ALDP af finity measurement for PEX19 CTD proteins using a fluorescence polarization assay . Polarization plots as a function of protein concentration for the direct titration of PEX19 non-farnesylated (black) and farnesylated (red) forms (wild type and residue spedific mutants) into fluorescein-labeled ALDP peptide. […]
standard deviations for triplicate measurements (n = 3).
(§3) (also on this page, place not known: assay. affinity Fluorescence polarization (mP) wt wtfarn Fluorescence polarization (mP) M179Rfarn 0.00 1.00 Fluorescence polarization (mP) M255Rfarn 0.00 1.00 Fluorescence polarization (mP) I195Kfarn Kd Kd /uni03BCM)

PEX19 CTD M179R = experiment: Fluorescence polarization, ALDP peptide binding to PEX19 CTD M179R; parameters: species or system human; conditions: with or without farnesylation, FITC-labelled ALDP peptide 20 nM, triplicate (n = 3)
Procedure: as §1, §2, §3

PEX19 CTD I195K = experiment: Fluorescence polarization, ALDP peptide binding to PEX19 CTD I195K; parameters: species or system human; conditions: with or without farnesylation, FITC-labelled ALDP peptide 20 nM, triplicate (n = 3)
Procedure: as §1, §2, §3

PEX19 CTD M255R = experiment: Fluorescence polarization, ALDP peptide binding to PEX19 CTD M255R; parameters: species or system human; conditions: with or without farnesylation, FITC-labelled ALDP peptide 20 nM, triplicate (n = 3)
Procedure: as §1, §2, §3

[2] = molecular target: FITC-labelled ALDP peptide (62-…-76) (human); experiment: fluorescence polarisation; 20 nM FITC-ALDP peptide constant, 12-point titration of PEX19 CTD variants from 1 mM to 0.5 uM; 50 mM Tris pH 8.0, 50 mM NaCl; triplicates
[3] = NMR 13C secondary chemical shifts (peptide conformation); type: physicochemical; conditions: C-terminally extended version of the ALDP peptide with additional tryptophan (residue 68 to 82)
From the text: Phe71 aromatic ring protons
Residue number Leucine residue
Supplementary Figure 8: Intermolecular NOEs between PEX19 CTD and the ALDP peptide, and secondary structure of the latter. (a) 1H,1H plane of a 3D ω1-filtered, ω2-edited 13C-NOESY-HSQC experiment of farnesylated PEX19 CTD free (black) and bound to the ALDP peptide (red). Methyl and methylene protons of the unlabeled farnesyl group of the PEX19 CTD show NOEs with protons of the isotope-labeled farnesylated PEX19 CTD (black circles). In the presence of also unlabeled ALDP peptide additional intermolecular methyl-methyl and aliphatic-aromatic NOEs are observed (red circles and below). (b) NMR 13C secondary chemical shifts of a C-terminally extended […]
tion. (c) Due to signal overlap, 5 out of 7 spin systems for leucine residues were assigned. Nevertheless, also the leucines residues adopt a helical conformation.
(also on this page, place not known: (Leu75)(Leu76) (Leu81)(Leu82) 5 LeuC Cα- Cβ [p.p.m.] Cα- Cβ [p.p.m.] c ω2 ω1 1H (p.p.m.) ω1 1H (p.p.m.) QDPro273/Pro274 { - - { 5)

[4] = system: peroxisome biogenesis in cells; conditions: ref Sacksteder et al, Gould J Cell Biol 2000; cited from earlier work
From the text: page 14: remnants (and this is also what can be seen in these figures). To improve clarity and avoid confusion, the authors should correct these mistakes. […] The sentence on page 9 now reads “Cells that are not complemented by functional PEX19 show a cytosolic mislocalization of the peroxisomal marker protein GFP-PTS1 and a diffuse background immunolabelling of the peroxisomal membrane protein PEX14 that is different from the peroxisomal pattern and known to be due to mislocalization to mitochondria (Fig. 5c, ΔPEX19).” Accordingly, the legend of Figure 5 ...

[5] = molecular target: T2, non-farnesylated human PEX19 C-terminal domain (residues 161-299) (human, UniProt P40855 161-299); experiment: FP
T2 chain: T1 sequence (P40855 161-299)

[6] = molecular target: T3, farnesylated human PEX19 C-terminal domain (residues 161-299) (human, UniProt P40855 161-299, farnesyl group on Cys296 (CaaX box)); experiment: FP; farnesylated PEX19
T3 chain: T1 sequence (P40855 161-299)

[7] = molecular target: T4, non-farnesylated human PEX19 C-terminal domain (residues 161-299) (human, UniProt P40855 161-299); experiment: MST; fluorescein-PEX11B peptide (200 nM stock) constant, unlabelled PEX19 CTD serially diluted from 612 uM to 18 nM; 20 mM potassium phosphate pH 6.5, 50 mM NaCl, 20% methanol, 0.1% Tween; three measurements; conditions: both partners purified
T4 construct: Peroxisomal biogenesis factor 19 (PEX19), human, C-terminal domain, residues 161-299 with the native C-terminus and CaaX box; 15N- (or 13C/2H-) labelled for NMR; Expressed from pETM11; also called PEX19 CTD; non-farnesylated PEX19 CTD; source: E. coli BL21 (DE3), purified (Ni-NTA, TEV cleavage, size-exclusion chromatography)
T4 sequence (looked up): T1 sequence (P40855 161-299)

[8] = molecular target: T5, farnesylated human PEX19 C-terminal domain (residues 161-299) (human, UniProt P40855 161-299, farnesyl group on Cys296 (CaaX box)); experiment: as above; conditions: both partners purified
T5 construct: Peroxisomal biogenesis factor 19 (PEX19), human, C-terminal domain, residues 161-299, farnesylated at Cys296; Virtually complete farnesylation by SDS-PAGE and NMR; Isotope-labelled for NMR; also called farnesylated PEX19 CTD; source: E. coli BL21 (DE3), purified; farnesylated in vitro with S. cerevisiae farnesyl transferase, then Ni-NTA and Superdex 75
T5 sequence (looked up): T1 sequence (P40855 161-299)

[9] = system: PEX19-deficient human fibroblasts (ΔPEX19 T); experiment: Functional complementation of PEX19-deficient fibroblasts (peroxisomal protein import); type: cell-based; conditions: full-length PEX19 variants; 72 h after transfection; at least 100 cells in three independent transfections; series of Fig. 3c
From the text: A bicistronic expression plasmid coding for eGFP-PTS1 and non-tagged PEX14 (pMF1220)[43] was kindly provided by Marc Fransen (Leuven, Belgium). pIRES2-HsPEX19-eGFP-PTS1 was constructed by replacing the open reading frame of PEX14 (BglII/SalI) with a DNA-cassette encoding the full-length open reading frame of human PEX19 as derived from BamHI/SalI digestion of pAH05 (ref. [44]). Single point mutations were introduced into the PEX19 sequence by Quickchange XL Site-directed Mutagenesis kit (Stratagene) using primer pairs (Supplementary Table 1). The bicistronic expression vectors coding for PEX19 variants and eGFP-PTS1 were transfected into the human cell-line ΔPEX19 T which was derived from PEX19-deficient Zellweger patient fibroblasts. ΔPEX19 T cells, characterized by a defect in peroxisome biogenesis were routinely authenticated by functional complementation assays as described below and checked for mycoplasma contamination using Venor GeM Advance Mycoplasm Detection Kit (Minerva Biolabs). The efficiency of transfection according to the Amaxa Cell Line Nucleofector Kit R protocol (Lonza Cologne AG) was always around 90%. After 72 h of transfection, cells were subjected to fluorescence and immunofluorescence microscopy using polyclonal antiserum against human PEX14 (ref. [45]) (1:400 diluted) or monoclonal antibodies against human PEX19 (BD Biosciences, MA5-17266 Thermo Scientific; 1:400 diluted). Statistical analysis was carried out from three independent transfections of each pIRES-PEX19-eGFP-PTS1 expression plasmid. Based on the appearance of eGFP-PTS1 fluorescence pattern, about 100 cells of each experiment were visually categorized into three classes, (i) full complementation of peroxisomal import as visualized by punctuate staining pattern, (ii) partial complementation as indicated by diffuse cytosolic staining with few dots, (iii) no complementation resulting in only cytosolic staining. All micrographs were recorded on a Zeiss Axioplan 2 microscope with a Zeiss Plan-Apochromat × 63/1.4 oil objective and an Axiocam MR digital camera, and were processed with AxioVision 4.6 software (Zeiss, Jena, Germany). The steady-state level of PEX19 expression was assessed by immunoblot analysis, using monoclonal mouse antibodies against HsPEX19 (BD Biosciences, MA5-17266; 1:1,000 diluted) (Supplementary Fig. 9).

CSCC[C@H](NC(=O)CNC(=O)[C@H](C)NC(=O)[C@H](CCCCN)NC(=O)[C@H](C)NC(=O)[C@H](C)NC(=S)Nc1ccc2c(c1)C(=O)OC21c2ccc(O)cc2Oc2cc(O)ccc21)C(=O)N[C@@H](CC(N)=O)C(=O)N[C@@H](CCCNC(=N)N)C(=O)N[C@H](C(=O)N[C@@H](Cc1ccccc1)C(=O)N[C@@H](CC(C)C)C(=O)N[C@@H](CCC(N)=O)C(=O)N[C@@H](CCCNC(=N)N)C(=O)N[C@@H](CC(C)C)C(=O)N[C@@H](CC(C)C)C(=O)O)C(C)C [fluorescein-labeled ALDP peptide] ({FITC}-AAKAGMNRVFLQRLL-OH; C-terminus assumed)
increase in affinity upon farnesylation of wild type PEX19 CTD [1]: seven
binding to PEX19 CTD M179R (PEX19 CTD M179R): impaired binding
binding to PEX19 CTD I195K (PEX19 CTD I195K): impaired binding
binding to PEX19 CTD M255R (PEX19 CTD M255R): impaired binding

farnesylated human PEX19 C-terminal domain (residues 161-299) (from UniProt P40855 161-299) (domain or fragment)
fold increase in affinity over non-farnesylated PEX19 CTD [2]: 7 fold

C-terminally extended: C-terminally extended version of the ALDP peptide, which harbors an additional tryptophan (residue 68 to 82) (NRVFLQRLLWLLRLL; UniProt P33897 68-82, looked up, fragment)
helical conformation of free peptide [3]: largely helical conforma

B1: PEX19/C296A: human PEX19 with a mutation of the farnesylation site (Sacksteder et al) (protein, UniProt P40855 2-296, looked up, variant C296A)
Peroxisomal biogenesis factor …: AAAEEGCSVGAEADRELEELLESALDDFDKAKPSPAPPSTTTAPDASGPQKRSPGDTAKDALFASQEKFFQELFDSELASQATAEFEKAMKELAEEEPHLVEQFQKLSEAAGRVGSDMTSQQEFTSCLKETLSGLAKNATDLQNSSMSEEELTKAMEGLGMDEGDGEGNILPIMQSIMQNLLSKDVLYPSLKEITEKYPEWLQSHRESLPPEQFEKYQEQHSVMCKICEQFEAETPTDSETTQKARFEMVLDLMQQLQDLGHPPKELAGEMPPGLNFDLDALNLSGPPGASGEQA
functional complementation, % of the activity of wild-type PEX19 [4]: ~80%

B2: FITC-labelled ALDP peptide (62-AAKAGMNRVFLQRLL-76) (peptide)
peptide: {FITC}-AAKAGMNRVFLQRLL
Kd [5]: 262 µM
Kd [6]: 36 µM

B3: N-terminally fluorescein-labelled PEX11B peptide (residues 186-200 of human PEX11B) (peptide)
peptide: fluorescein-LALKLRLQVLLLARV
notes: PEX11B, human, residues 186-200; also called PEX11-derived peptide; source: bought: Peptide Specialty Laboratories GmbH, Heidelberg
Kd [7]: 29.8 ± 1.6 µM
Kd [8]: 6.1 ± 0.4 µM

B4: wild type PEX19: full-length wild type human PEX19 expressed in fibroblasts (protein, UniProt P40855 1-299, looked up)
chain: MAAAEEGCSVGAEADRELEELLESALDDFDKAKPSPAPPSTTTAPDASGPQKRSPGDTAKDALFASQEKFFQELFDSELASQATAEFEKAMKELAEEEPHLVEQFQKLSEAAGRVGSDMTSQQEFTSCLKETLSGLAKNATDLQNSSMSEEELTKAMEGLGMDEGDGEGNILPIMQSIMQNLLSKDVLYPSLKEITEKYPEWLQSHRESLPPEQFEKYQEQHSVMCKICEQFEAETPTDSETTQKARFEMVLDLMQQLQDLGHPPKELAGEMPPGLNFDLDALNLSGPPGASGEQCLIM
modifications: full-length
notes: full-length wild type human PEX19 expressed in fibroblasts
cells showing restored peroxisomal protein transport (functional complementation) [9]: 60%
cells with rescue of peroxisome biogenesis [4]: ~50%
